± gives the uncertainty stated by the source.
Test: amyloid nucleation score (Sup35N fusion, yeast selection) (log enrichment); library NNK2; higher = more nucleation; inactive = no reads after selection
Outline: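 The nucleation score is a DiMSum log enrichment of output over input reads, centred on the mode score of non-aggregating sequences. Sequences under 100 input reads were excluded, and reads came from Illumina sequencing of plasmid inserts. Psi-negative yeast expressing Sup35N fused to peptides of 20 random codons were induced with 100 μM copper sulfate for 24 hours and grown 7 days at 30°C on medium lacking adenine and uracil. Random libraries had three technical output replicates.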

Substance | amyloid nucleation score
CSVYVCQLSLCCSVY | 6.426 ± 0.06
CSYWNVGYREVRMTDDDTMG | -0.975 ± 0.53
CTCFGRVRLQKSIWGKRLIH | -0.383 ± 0.56
CTEGQLN | 0.002 ± 0.55
CTFFTSTPT | 0.343 ± 0.51
CTSASGTSPGWNKRGRNWGD | 5.52 ± 0.095
CTWIYTLTFFARNS | 0.01 ± 0.55
CVECYFRCGLGITEVDTN | inactive
CVFASNKRMEGVDKKLRVRN | 0.403 ± 0.62
CVICDNYFILEAVF | -0.771 ± 1.1
CVICHYHLCLRQCIWSG | 5.373 ± 0.033
CVIGADALASG | 0.5 ± 0.38
CVILLVIFMLYIYWFSDMFL | -0.721 ± 0.63
CVMHVRHHYGDI | inactive
CVMMLSSFLQRCRRVVLDSR | 0.325 ± 0.56
CVMTRRSTKCFSMSLLSIWL | 6.496 ± 0.056
CVREIYYVFCINSPVIAMDC | 6.149 ± 0.038
CVSSARNIHFNGVVKCVRYR | 2.79 ± 0.054
CVSVGCVESGTMICQLKLSQ | 7.19 ± 0.075
CVVRSSAKRFDCRKFGRASN | 0.599 ± 0.8
CWFHGLWIRGVDNSSVYWMD | -0.466 ± 0.65
CWFMYPSMIDWWSMTSRECF | -0.129 ± 0.18
CWMIQLVVLEWCAHGPRVAN | -0.304 ± 0.41
CWTEY | -0.589 ± 0.3
CYCDSWIMAS | -1.69 ± 0.55

Substance | amyloid nucleation score
CYCEEMSMNTFKTCINTGAM | 1.04 ± 0.42
CYIFYS | inactive
DAFGRIGPNEKLYDGEDECW | 0.902 ± 0.22
DAFWCYVDTLYMNRPSQ | 0.988 ± 0.29
DAMFFKCRMYRAVGRFFREG | 0.02 ± 0.28
DASMQF | 0.797 ± 0.57
DCFFFKSWVSLGKIMLSTFS | -0.997 ± 1.1
DCNVWSSSERKVLSRGTSDF | -0.193 ± 0.31
DCSLELVNRRGSGIVQCAGY | 1.1 ± 0.38
DCWNCIISGSSALCAHVQSV | inactive
DCYRPYWKVFIPLVIFGA | -0.076 ± 0.55
DDRELL | -0.32 ± 0.63
DDSFGVAVMKVWEMRGWSAL | 1.16 ± 0.27
DDSMHWFYLLGWIPVGSKGG | inactive
DDWVSGEEFGRSRNLNHFPD | -1.56 ± 0.48
DDYTDTCRCDMFRFSEFLTN | -0.534 ± 0.74
DEEGRVSPDVARLVAVICGA | 0.413 ± 0.39
DFCCWCPFCYVSWYEGIVMI | 0.305 ± 1
DFFVLVGYGKVK | 0.595 ± 0.53
DFIEMVLDGCSHGLATVCPT | inactive
DFSIQWCTSSINYVLYFAI | -1.89 ± 0.44
DFVPNGCNCINSGWDFRQVD | -1.88 ± 0.64
DFWFSGDFK | -0.778 ± 0.44
DGELVVWFMVMSWWNIKDSK | -0.446 ± 1
DGFRTYIVRWEATVANSLVV | 0.736 ± 0.52

Substance | amyloid nucleation score
DGFSYDPFSMVSIVVRFVVG | 0.99 ± 0.32
DGFYG | inactive
DGKFRRVTLRGPLA | 0.554 ± 0.56
DGPWGSMDTRYNSS | 0.479 ± 0.74
DGSMFGPDVCFYIVSLILPF | 5.03 ± 0.07
DGTAFMARPKETSIPDVSSS | -0.593 ± 0.33
DGTYLQNRRDFNNGSARRGW | 0.984 ± 0.57
DHCDAVNSFEEWLMRGVPYN | -0.06 ± 0.45
DHIVYTLGCWGLRSPFKPLL | 0.026 ± 1.1
DHNGVKSTSHKSSFFMSTGR | 0.056 ± 0.39
DHRVLQWLTAPY | 0.353 ± 0.36
DHSYRRYVVEGLFSVSQNGK | 0.21 ± 0.54
DICVKSRRSRPRV | 0.591 ± 0.51
DIERQAVNRPVGRLGKTEDS | 0.242 ± 0.77
DIFLM | 0.487 ± 0.15
DIIRMGFRPFWQGVCVRLSY | -0.669 ± 0.63
DILGFCLSCMLRVGLFTWGR | inactive
DITLFYSDTSCRFSVPCSVD | 0.598 ± 0.46
DKKLIFRWAITVMIRIPART | 1.65 ± 0.48
DKTKE | inactive
DKTVIPLCFLHFNRT | -1.35 ± 0.78
DKYNTVRLCP | 0.987 ± 0.5
DLEVLSLGGINFFVVDTFMI | 0.964 ± 0.28
DLGAFRLRR | -2.19 ± 0.54
DLKRLAWMLILSIYNRSTIM | -0.221 ± 1.1

Substance | amyloid nucleation score
DLRLYILNL | 6.556 ± 0.055
DLRRGSRRWRKYGTGECGLL | 0.43 ± 0.32
DLRSWVFWNTSAYYIFSTDS | -1.32 ± 0.36
DLSCGGRLKMNHYKA | -0.686 ± 0.76
DLSNSIVLLGFDNSQWLRDA | 1.78 ± 0.095
DLSQYDCVNVFALPGWCNNT | 4.35 ± 0.048
DLVSLLSGVFVMFVGLCFEV | -0.733 ± 1.1
DLYMNEASTALGLGRGFLWG | -0.553 ± 1.1
DMCLW | -0.625 ± 0.33
DMMCLLFGAKFNVQTGTHS | 5.231 ± 0.052
DMNEDVGLGNKFC | 0.119 ± 0.54
DMNLRLSEWVDFCSIGLFVK | -0.272 ± 0.35
DMSIRRRI | -0.419 ± 0.32
DMWQGEFKLGPRFSDENSQF | -0.172 ± 1.1
DNCLASVFINVKEFSHLCLW | -0.451 ± 0.79
DNFYCHHVDLFSWMIRADLA | -0.847 ± 0.64
DNGCELPFLFFMFASTVKWS | -0.78 ± 1.1
DNKRWLRIWMKFLKGDMHGL | -0.283 ± 1.1
DNQGSLDNSSLCTVYSGFSV | inactive
DNRNCPAHWWASFTMKPGSE | 0.14 ± 0.49
DNSHWI | 0.903 ± 0.47
DNSYVMDLECLICCNFSNTK | 8.201 ± 0.025
DNYITLIAMKGYKTAYSTVS | -0.116 ± 0.61
DRARRVVIIWVYLIDRVNVR | 0.004 ± 1.1
DRAYDVCGRSRRWYQKKLGM | -0.667 ± 0.49

Substance | amyloid nucleation score
DRHYCQKGEWRKDEDVFPVE | 0.13 ± 1.1
DRINSFLFRETVWQNNWVIS | -0.263 ± 0.79
DRLAILSNFGVVMIPTLRLY | -0.09 ± 0.4
DRLTG | -0.705 ± 1.1
DRMLCWDLGVIKNVLRTRVL | -0.354 ± 0.55
DRMQVRSR | 0.944 ± 0.27
DRPALCSLCSETSVVNTLHL | 5.74 ± 0.064
DRPSCEFEPMFRRWDYSEGA | 0.11 ± 0.23
DRPVCMYNMF | 1.63 ± 0.28
DRRMGLIVPRMSDRTDPFSY | 0.489 ± 0.29
DRYISLCGW | -0.086 ± 0.56
DSASNVW | 0.553 ± 0.37
DSDHFA | -1.58 ± 0.78
DSEGSA | inactive
DSEPVYYTVNFNQLLSRLYY | 1.52 ± 0.32
DSFIVYVR | -0.072 ± 0.63
DSGCKFAAPCSVYPLFLFDM | -0.788 ± 1.1
DSGRCFSFKWFCYFQHHHEV | 2.18 ± 0.17
DSHADAISVAVKVGRWRYND | 1.53 ± 0.23
DSILLSLCPTNCFKN | -0.148 ± 0.63
DSLEGVSCSLMSLSTLTGEC | 0.143 ± 0.54
DSNTPHASMRYISFKRFFFV | -0.107 ± 1
DSPQHHECIMVWL | 4.38 ± 0.064
DSSGVGTRLDCKLCFENLID | -0.952 ± 0.47
DSSIAYFIGVLASIGADEDR | 6.452 ± 0.061

Substance | amyloid nucleation score
DSSKSMCLICSNCILNFSEM | 8.698 ± 0.049
DSSSCYMYLCTGNYPDNFNF | 4.5 ± 0.084
DSVGMVRTLVWDWGQATNGR | 0.953 ± 0.51
DTERRC | -1.06 ± 0.61
DTFPKHSQHAVVKRPQIYID | -1.04 ± 1.1
DTGSGAPVIKYCVAVPRSFT | 0.306 ± 0.57
DTPCSYISCMCNTIL | 9.453 ± 0.03
DTRFEVNAFTIGNRYATNGS | -0.869 ± 0.41
DVACNTRKPCS | -0.908 ± 0.78
DVCGD | -0.566 ± 0.48
DVDEVW | -1.09 ± 0.61
DVGSPWLNYSSFFIFWSTIS | -1.02 ± 1.1
DVHHRIIMMLLGGFWYACGY | -0.428 ± 0.27
DVIYNERTYLLFLTPHTMVV | -0.991 ± 0.63
DVLEIFVMTRGIVEVNPDSN | 8.665 ± 0.031
DVLRLTQTANLLCSSALRSA | 1.07 ± 0.12
DVLWTLQLLFDPVGLCLAMK | 0.391 ± 0.41
DVSLNRGVRPF | -0.123 ± 0.76
DVSNLWFTNFCGFWGKYVVK | inactive
DVVMG | 0.701 ± 0.51
DVVNVSYGPVITFMSVFRVS | 7.556 ± 0.051
DWCTAAGDEMDMVVGGKVPN | 0.427 ± 0.34
DWCVNVIERSGDTLEVMCNF | 0.817 ± 0.8
DWFCVHKV | 0.058 ± 1
DWFVSGTSDRVVGNSAGGGV | 0.589 ± 0.66

Substance | amyloid nucleation score
DWLNSVFFLPFKCGLCVLRA | 0.06 ± 0.4
DWQRRFAQIMIRGFNVILVT | 0.097 ± 1.1
DYCLSSICFLIDVGESFERG | 0.171 ± 0.44
DYFSNLIVDLTFLSGSFVFV | -0.578 ± 1.1
DYGEGLPNSMCCLVSFQ | 0.057 ± 1.1
DYLIAIQLYDFYVHGLIKYR | -0.853 ± 0.78
DYSLSWVRYSFAYRGVSKDG | 0.061 ± 0.12
DYTNSTAEGFTF | inactive
DYVCGGGFLTKDVSACGLYV | 0.685 ± 0.46
DYVRCVDLSN | -0.863 ± 0.63
DYWFLCAICLWVFTGMYLVE | 0.01 ± 0.28
EACLNGAA | 0.638 ± 0.18
ECLKYRYSFFNWTSTSVFHA | -0.435 ± 0.79
ECLTLFRTGRM | 5.306 ± 0.037
ECNTSVLSTWARDLVSPVLT | 4.3 ± 0.053
ECRRF | 2.78 ± 0.12
EDGGLCSASVRLYG | 0.379 ± 0.33
EDLYFTTGMLAKKCGPQGMG | 5.04 ± 0.069
EDRVCAYLNRKYCRYLGHSM | 1.29 ± 0.35
EEWTVNCC | 5.766 ± 0.046
EFAELSSRQRFWHMFV | 1.04 ± 0.34
EFVISKNSVPSPCRCW | 0.382 ± 0.8

From the supplement of paper PMC12042874
